Substitutions are numbered along the chain they refer to.
T1: Murine APRIL (mouse, UniProt Q9D777 105-241, limits assumed)
T1 sequence (looked up): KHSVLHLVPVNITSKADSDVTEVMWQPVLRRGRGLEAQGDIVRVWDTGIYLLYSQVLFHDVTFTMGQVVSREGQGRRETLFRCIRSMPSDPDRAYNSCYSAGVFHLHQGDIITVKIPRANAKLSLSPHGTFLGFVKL

B1: TACI_d2 E105A (receptor)
chain: SLSCRKEQGKFYDHLLRDCISCASICGQHPKQCAYFCANKLR
notes: phage library variant, format as m9
B2: TACI_d2 Q99A (receptor)
chain: B1 chain with Q32A, A38E
notes: as for B1
B3: TACI_d2 L83A (receptor)
chain: B1 chain with L16A, A38E
notes: as for B1
B4: TACI_d2 S91A (receptor)
chain: B1 chain with S24A, A38E
notes: as for B1
B5: TACI_d2 H81A (receptor)
chain: B1 chain with H14A, A38E
notes: as for B1
B6: TACI_d2 G76A (receptor)
chain: B1 chain with G9A, A38E
notes: as for B1
B7: TACI_d2 H96D (receptor)
chain: B1 chain with H29D, A38E
notes: as for B1
B8: TACI_d2 K73E (receptor)
chain: B1 chain with K6E, A38E
notes: as for B1
B9: TACI_d2 N106D (receptor)
chain: B1 chain with A38E, N39D
notes: as for B1
B10: TACI_d2 K107E (receptor)
chain: B1 chain with A38E, K40E
notes: as for B1
B11: TACI_d2 K77A (receptor)
chain: B1 chain with K10A, A38E
notes: as for B1
B12: TACI_d2 Q95E (receptor)
chain: B1 chain with Q28E, A38E
notes: as for B1
B13: TACI_d2 P97A (receptor)
chain: B1 chain with P30A, A38E
notes: as for B1
B14: TACI_d2 H81D (receptor)
chain: B1 chain with H14D, A38E
notes: as for B1
B15: TACI_d2 L108P (receptor)
chain: B1 chain with A38E, L41P
notes: as for B1
B16: TACI_d2 L83P (receptor)
chain: B1 chain with L16P, A38E
notes: as for B1
B17: TACI_d2 K98E (receptor)
chain: B1 chain with K31E, A38E
notes: as for B1
B18: TACI_d2 Y102S (receptor)
chain: B1 chain with Y35S, A38E
notes: as for B1
B19: TACI_d2 K98A (receptor)
chain: B1 chain with K31A, A38E
notes: as for B1
B20: TACI_d2 Q95P (receptor)
chain: B1 chain with Q28P, A38E
notes: as for B1
B21: TACI_d2 H96A (receptor)
chain: B1 chain with H29A, A38E
notes: as for B1
B22: TACI_d2 F103S (receptor)
chain: B1 chain with F36S, A38E
notes: as for B1
B23: TACI_d2 Q95A (receptor)
chain: B1 chain with Q28A, A38E
notes: as for B1
B24: TACI_d2 S88A (receptor)
chain: B1 chain with S21A, A38E
notes: as for B1

Target: T1, Murine APRIL
Test: shotgun scan, phage display
Text: Phage from each of the libraries described above were subjected to rounds of binding selection against APRIL, BAFF, or anti-tag antibody (3C8:2F4 Genentech, Inc.) immobilized on 96-well Nunc Maxisorp immunoplates (Sidhu, 2001). BSA-coated wells were used to determine non-specific background binding. Phage eluted from each target were propagated in E. coli XL1-Blue in the presence of M13K07 helper phage; amplified phage were used for selection against the same target in the […] round. […] Enrichment was calculated from the ratio of the phage titer eluted from the target-coated wells to the phage titer eluted from the BSA-coated wells. Individual clones from each library and selection target were then grown in a 96-well format in 400 ul of 2YT medium supplemented with carbenicillin and KO7 helper phage. […] Sequences of acceptable quality were translated and aligned. For APRIL-binding, 71, 40, and 54 sequences were analyzed from libraries one, two and three, respectively. For BAFF-binding, 70, 50, and 53 sequences were analyzed for libraries one, two and three, respectively. For the display selection, a minimum of 47 sequences were analyzed for each library. […] F values describe the effect of mutation on target binding, while accounting for differences in display efficiencies, with values >1 representing deleterious mutations and those <1 representing favorable mutations.

Binder	F (APRIL)
B1	1.7
B2	1.9
B3	31
B4	2.1
B5	2
B6	1.6
B7	> 24
B8	7.7
B9	1.2
B10	2.1
B11	1
B12	21
B13	> 20
B14	0.9
B15	1.4
B16	> 20
B17	6.9
B18	1.5
B19	3.5
B20	> 39
B21	12
B22	5.8
B23	6.6
B24	3.8
